What all share (assay): SPR
(In general: SPR reads the build-up and loss of mass on a sensor chip optically.)

In assay [1] the target is T1, FcgRIa (human, UniProt P12314).
T1 chain: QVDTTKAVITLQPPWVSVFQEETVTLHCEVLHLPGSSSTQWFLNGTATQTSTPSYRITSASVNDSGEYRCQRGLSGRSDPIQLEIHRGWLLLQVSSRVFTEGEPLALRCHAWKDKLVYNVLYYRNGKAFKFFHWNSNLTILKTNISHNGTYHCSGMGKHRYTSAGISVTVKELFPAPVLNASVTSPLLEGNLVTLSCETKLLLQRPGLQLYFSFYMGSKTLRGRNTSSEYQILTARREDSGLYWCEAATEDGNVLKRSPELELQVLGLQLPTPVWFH

The target in assay [2] is T2, FcgRIIIaV (human, UniProt P08637).
Assay [3] has as its target T3, FcgRIIaR (human, UniProt P12318).
T3 chain: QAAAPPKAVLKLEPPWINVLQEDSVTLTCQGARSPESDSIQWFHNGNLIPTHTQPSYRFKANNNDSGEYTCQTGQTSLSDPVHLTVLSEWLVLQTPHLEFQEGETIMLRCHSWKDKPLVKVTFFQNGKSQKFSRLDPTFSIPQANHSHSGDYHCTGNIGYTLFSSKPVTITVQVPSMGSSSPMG

The target of assay [4] is T4, FcgRIIb (human, UniProt P31994).
T4 chain: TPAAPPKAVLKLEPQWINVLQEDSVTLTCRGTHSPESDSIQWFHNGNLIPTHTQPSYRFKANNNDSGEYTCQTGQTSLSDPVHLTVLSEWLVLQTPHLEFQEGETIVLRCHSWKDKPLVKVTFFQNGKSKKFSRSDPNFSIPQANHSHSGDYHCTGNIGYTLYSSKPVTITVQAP

In assay [5] the target is T5, FcgRIIaH (human, UniProt P12318).
T5 chain: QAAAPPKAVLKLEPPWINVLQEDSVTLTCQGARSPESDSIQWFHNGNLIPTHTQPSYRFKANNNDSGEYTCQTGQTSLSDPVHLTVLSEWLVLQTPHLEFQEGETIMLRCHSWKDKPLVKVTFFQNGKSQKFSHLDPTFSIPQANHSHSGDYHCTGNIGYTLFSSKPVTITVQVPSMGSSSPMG

Assay [6] concerns the target T2, FcgRIIIaV. The source holds these as a separate data set.
Assay [7] deals with T1, FcgRIa.
In assay [8] the target is T4, FcgRIIb.
Assay [9] deals with T3, FcgRIIaR.
For assay [10], the target named is T5, FcgRIIaH.

The text below walks through data of US11267868 (dated 2022).

Like-named read-outs stand apart in the source and are kept apart here.

T2 sequence (P08637 17-208 F176V): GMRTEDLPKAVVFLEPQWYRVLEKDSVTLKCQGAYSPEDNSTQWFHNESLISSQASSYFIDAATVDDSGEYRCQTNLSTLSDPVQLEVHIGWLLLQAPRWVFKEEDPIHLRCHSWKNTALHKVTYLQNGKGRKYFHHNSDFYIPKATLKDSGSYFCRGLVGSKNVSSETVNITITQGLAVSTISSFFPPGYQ

B1: IL6R-P652/IL6R-L (antibody)
chain 1: QVQLQESGPGLVKPSETLSLTCAVSGHSISHDHAWSWVRQPPGEGLEWIGFISYSGITNYNPSLQGRVTISRDNSKNTLYLQMNSLRAEDTAVYYCARSLARTTAMDYWGEGTLVTVSSASTKGPSVFPLAPSSKSTSGGTAALGCLVKDYFPEPVTVSWNSGALTSGVHTFPAVLQSSGLYSLSSVVTVPSSSLGTQTYICNVNHKPSNTKVDKKVEPKSCDKTHTCPPCPAPDLLGDDSVFLFPPKPKDTLMISRTPEVTCVVIDVYEEDGEVKFNWYVDGVEVHNAKTKPREEQDNSTYRVVSVLTVLHQDWLNGKEYKCKVSNKALPRPIEKTISKAKGQPREPQVYTLPPSRDELTKNQVSLTCLVKGFYPSDIAVEWESNGQPENNYKTTPMVLDSDGSFFLYSKLTVDKSRWQQGNVFSCSVMHEALHNHYTQKSLSLSP
chain 2: not shown
With B1, the Kd (usually the equilibrium constant for the complex coming apart) amounted to 0.72 µM in the assay with FcgRIa [1]; 72 µM in the assay with FcgRIIIaV [2]; 24 µM in the assay with FcgRIIaR [3]; 1.2 µM with FcgRIIb [4]; 170 µM with FcgRIIaH [5].

B2: IL6R-P625/IL6R-L (antibody)
chain 1: QVQLQESGPGLVKPSETLSLTCAVSGHSISHDHAWSWVRQPPGEGLEWIGFISYSGITNYNPSLQGRVTISRDNSKNTLYLQMNSLRAEDTAVYYCARSLARTTAMDYWGEGTLVTVSSASTKGPSVFPLAPSSKSTSGGTAALGCLVKDYFPEPVTVSWNSGALTSGVHTFPAVLQSSGLYSLSSVVTVPSSSLGTQTYICNVNHKPSNTKVDKKVEPKSCDKTHTCPPCPAPDKLGGDSVFLFPPKPKDTLMISRTPEVTCVVIDVAEEDGEVKFNWYVDGVEVHNAKTKPREEQYNSTYRVVSVLTVLHQDWLNGKEYKCKVSNKALPAPIEKTISKAKGQPREPQVYTLPPSRDELTKNQVSLTCLVKGFYPSDIAVEWESNGQPENNYKTTPPVLDSDGSFFLYSKLTVDKSRWQQGNVFSCSVMHEALHNHYTQKSLSLSP
chain 2: not shown
Regarding B2, the Kd with FcgRIa [1] was 0.5 µM; in the assay with FcgRIIIaV [2], 66 µM; in the assay with FcgRIIaR [3] it was 24 µM; with FcgRIIb [4], 1.7 µM; with FcgRIIaH [5], 180 µM.

B3: IL6R-P626/IL6R-L (antibody)
chain 1: QVQLQESGPGLVKPSETLSLTCAVSGHSISHDHAWSWVRQPPGEGLEWIGFISYSGITNYNPSLQGRVTISRDNSKNTLYLQMNSLRAEDTAVYYCARSLARTTAMDYWGEGTLVTVSSASTKGPSVFPLAPSSKSTSGGTAALGCLVKDYFPEPVTVSWNSGALTSGVHTFPAVLQSSGLYSLSSVVTVPSSSLGTQTYICNVNHKPSNTKVDKKVEPKSCDKTHTCPPCPAPDRLGGDSVFLFPPKPKDTLMISRTPEVTCVVIDVAEEDGEVKFNWYVDGVEVHNAKTKPREEQYNSTYRVVSVLTVLHQDWLNGKEYKCKVSNKALPAPIEKTISKAKGQPREPQVYTLPPSRDELTKNQVSLTCLVKGFYPSDIAVEWESNGQPENNYKTTPPVLDSDGSFFLYSKLTVDKSRWQQGNVFSCSVMHEALHNHYTQKSLSLSP
chain 2: not shown
B3: the dissociation constant (Kd) with FcgRIa [1] was 0.74 µM; in the assay with FcgRIIIaV [2], 75 µM; in the assay with FcgRIIaR [3], 31 µM; in the assay with FcgRIIb [4] it was 2.7 µM; with FcgRIIaH [5], 200 µM.

B4: IL6R-P694/IL6R-L (antibody)
chain 1: QVQLQESGPGLVKPSETLSLTCAVSGHSISHDHAWSWVRQPPGEGLEWIGFISYSGITNYNPSLQGRVTISRDNSKNTLYLQMNSLRAEDTAVYYCARSLARTTAMDYWGEGTLVTVSSASTKGPSVFPLAPSSKSTSGGTAALGCLVKDYFPEPVTVSWNSGALTSGVHTFPAVLQSSGLYSLSSVVTVPSSSLGTQTYICNVNHKPSNTKVDKKVEPKSCDKTHTCPPCPAPDLLGGDSVFLFPPKPKDTLMISRTPEVTCVVIDVREEDGEVKFNWYVDGVEVHNAKTKPREEQENSTYRVVSVLTVLHQDWLNGKEYKCKVSNKALPAPIEKTISKAKGQPREPQVYTLPPSRDELTKNQVSLTCLVKGFYPSDIAVEWESNGQPENNYKTTPPVLDSDGSFFLYSKLTVDKSRWQQGNVFSCSVMHEALHNHYTQKSLSLSP
chain 2: not shown
As for B4, the equilibrium dissociation constant (Kd) with FcgRIIIaV [6] amounted to 47 µM; with FcgRIa [7] it was 0.41 µM; in the assay with FcgRIIb [8] it was 2.8 µM; in the assay with FcgRIIaR [9], 61 µM; with FcgRIIaH [10], 200 µM.

B5: IL6R-P702/IL6R-L (antibody)
chain 1: QVQLQESGPGLVKPSETLSLTCAVSGHSISHDHAWSWVRQPPGEGLEWIGFISYSGITNYNPSLQGRVTISRDNSKNTLYLQMNSLRAEDTAVYYCARSLARTTAMDYWGEGTLVTVSSASTKGPSVFPLAPSSKSTSGGTAALGCLVKDYFPEPVTVSWNSGALTSGVHTFPAVLQSSGLYSLSSVVTVPSSSLGTQTYICNVNHKPSNTKVDKKVEPKSCDKTHTCPPCPAPDLLGGDSVMLFPPKPKDTLMISRTPEVTCVVIDVREEDGEVKFNWYVDGVEVHNAKTKPREEQYNSTYRVVSVLTVLHQDWLNGKEYKCKVSNKALPAPIEKTISKAKGQPREPQVYTLPPSRDELTKNQVSLTCLVKGFYPSDIAVEWESNGQPENNYKTTPPVLDSDGSFFLYSKLTVDKSRWQQGNVFSCSVMHEALHNHYTQKSLSLSP
chain 2: not shown
Take B5: the dissociation constant Kd is 44 µM with FcgRIIIaV [6]; 0.57 µM in the assay with FcgRIa [7]; 4 µM with FcgRIIb [8]; 54 µM with FcgRIIaR [9]; 170 µM with FcgRIIaH [10].

B6: IL6R-P636/IL6R-L (antibody)
chain 1: QVQLQESGPGLVKPSETLSLTCAVSGHSISHDHAWSWVRQPPGEGLEWIGFISYSGITNYNPSLQGRVTISRDNSKNTLYLQMNSLRAEDTAVYYCARSLARTTAMDYWGEGTLVTVSSASTKGPSVFPLAPSSKSTSGGTAALGCLVKDYFPEPVTVSWNSGALTSGVHTFPAVLQSSGLYSLSSVVTVPSSSLGTQTYICNVNHKPSNTKVDKKVEPKSCDKTHTCPPCPAPDLLGGDSVFLFPPKPKDTLMISRTPEVTCVVIDVREEDGEVKFNWYVDGVEVHNAKTKPREEQYNSTYRVVSVLTVLHQDWLNGKEYKCKVSNKALPAPIEKTISKAKGQPREPQVYTLPPSRDELTKNQVSLTCLVKGFYPSDIAVEWESNGQPENNYKTTPPVLDSDGSFFLYSKLTVDKSRWQQGNVFSCSVMHEALHNHYTQKSLSLSP
chain 2: not shown
Consider B6, for which the equilibrium dissociation constant (Kd) with FcgRIa [1] is 0.46 µM; with FcgRIIIaV [2], 45 µM; with FcgRIIaR [3] it was 54 µM; in the assay with FcgRIIb [4], 2.9 µM; with FcgRIIaH [5] it was 170 µM.

B7: IL6R-P629/IL6R-L (antibody)
chain 1: QVQLQESGPGLVKPSETLSLTCAVSGHSISHDHAWSWVRQPPGEGLEWIGFISYSGITNYNPSLQGRVTISRDNSKNTLYLQMNSLRAEDTAVYYCARSLARTTAMDYWGEGTLVTVSSASTKGPSVFPLAPSSKSTSGGTAALGCLVKDYFPEPVTVSWNSGALTSGVHTFPAVLQSSGLYSLSSVVTVPSSSLGTQTYICNVNHKPSNTKVDKKVEPKSCDKTHTCPPCPAPDLLGKDSVFLFPPKPKDTLMISRTPEVTCVVIDVAEEDGEVKFNWYVDGVEVHNAKTKPREEQYNSTYRVVSVLTVLHQDWLNGKEYKCKVSNKALPAPIEKTISKAKGQPREPQVYTLPPSRDELTKNQVSLTCLVKGFYPSDIAVEWESNGQPENNYKTTPPVLDSDGSFFLYSKLTVDKSRWQQGNVFSCSVMHEALHNHYTQKSLSLSP
chain 2: not shown
B7: the dissociation constant (Kd) was found to be 0.0033 µM in the assay with FcgRIa [1]; 47 µM in the assay with FcgRIIIaV [2]; 27 µM with FcgRIIaR [3]; 0.65 µM with FcgRIIb [4]; 100 µM with FcgRIIaH [5].

B8: IL6R-P665/IL6R-L (antibody)
chain 1: QVQLQESGPGLVKPSETLSLTCAVSGHSISHDHAWSWVRQPPGEGLEWIGFISYSGITNYNPSLQGRVTISRDNSKNTLYLQMNSLRAEDTAVYYCARSLARTTAMDYWGEGTLVTVSSASTKGPSVFPLAPSSKSTSGGTAALGCLVKDYFPEPVTVSWNSGALTSGVHTFPAVLQSSGLYSLSSVVTVPSSSLGTQTYICNVNHKPSNTKVDKKVEPKSCDKTHTCPPCPAPDLLGDDSVFLFPPKPKDTLMISRTPEVTCVVIDVAEEDGEVKFNWYVDGVEVHNAKTKPREEQDASTYRVVSVLTVLHQDWLNGKEYKCKVSNKALPRPIEKTISKAKGQPREPQVYTLPPSRDELTKNQVSLTCLVKGFYPSDIAVEWESNGQPENNYKTTPMVLDSDGSFFLYSKLTVDKSRWQQGNVFSCSVMHEALHNHYTQKSLSLSP
chain 2: not shown
In the case of B8, the equilibrium dissociation constant (Kd) with FcgRIa [1] worked out at 1.9 µM; in the assay with FcgRIIIaV [2], 67 µM; with FcgRIIaR [3] it was 49 µM; in the assay with FcgRIIb [4] it was 3.2 µM; with FcgRIIaH [5], 450 µM.
